Source: patent US7521477B2, “Vitamin C derivatives with peptide, preparation method thereof and composition comprising the same” (Peptron Co., Ltd., priority 2003, dated 2009)
Peptide text beside a SMILES is read from it. * marks the point of attachment. X1 = O=C(CCC(=O)*)OC[C@H](O)[C@H]1OC(=O)C(O)=C1O

What was measured:
[1] = system: male Hartley guinea pigs; assay: Phototoxicity test; settings: guinea pig, in vivo
Method: Each of the test samples was applied to the skin of guinea pigs, and the guinea pigs were exposed to ultraviolet A (UVA) radiation. Then, potency to induce phototoxicity was evaluated. Induction of phototoxicity, which is an abnormal response of the skin to a photo-stimulus such as ultraviolet or visible light, occurs non-immunologically by a chemical. Unlike the allergic response, the degree of phototoxicity can be expected by sufficient intensity of radiation and drugs.
CP and 8-MOP were prepared at a final concentration of 10% in DMSO and then diluted to 1%. Each of guinea pigs was fixed on a fixing plate, and the skin of the guinea pig was covered with 50 μl of each of the test samples. Then, the right area of the skin was not exposed to UV light, and the left area of the skin was exposed to UVA light (320 to 380 nm) of 15 J/cm^2, which was irradiated in a distance of about 10 cm for about 2 hrs. 24 hrs, 48 hr and 72 hrs after UVA irradiation, photosensitization in the treatment group was evaluated in comparison with that in the positive control groups.

[2] = system: human normal fibroblasts, B16 melanocytes and HaCaT cells; assay: Cytotoxicity, MTT assay; type: cell-based; settings: concentration of 5 mM
[3] = system: male Hartley guinea pigs; settings: guinea pig, in vivo
Method: Two weeks after secondary sensitization, topical challenge was carried out, as follows. […] Skin reading was made after removal of the patches.

[4] = system: eyes of rabbits; assay: Ocular irritation test; type: in vivo, New Zealand White Rabbit; settings: 0.1 ml of 1% in 0.01M PBS
Method: The compound II-4 was determined whether inducing ocular irritation or evaluated for the degree of ocular irritation. The compound II-4 was applied to the eyes of rabbits (New Zealand White Rabbit, NZW).
0.1 ml of 1% compound II-4 in 0.01M PBS was applied to the eyes of the rabbits. That is, the test compound was applied to one eye (right) of each of nine rabbits in an amount of 0.1 ml/head according to the standard criteria for toxicity test of pharmaceutical and medicinal substances (a publication by Korean Food & Drug Administration, Vol. 1999-61, Dec. 22, 1999). After application of the test compound, the treated eyes of the rabbits were maintained at a state of being closed for about one second to prevent loss of the applied test compound. Then, the degree of damage in the cornea, the iris and the conjunctiva was investigated.

[5] = system: male Hartley guinea pigs; assay: Photosensitization test (Adjuvant & Strip method); type: in vivo; settings: guinea pig, in vivo
Method: A photosensitization test for the compound II-4 was carried out according to an Adjuvant & Strip method using male Hartley guinea pigs. After four sites to be sensitized were selected at the cervical and dorsal skin of the guinea pigs, an emulsion of WFI and FCA were intradermally injected to each of the selected sites. The sensitized sites were stripped only in a degree of inducing weak erythema, and covered with 0.01 PBS (excipient group), the compound II-4 (test group) and CP (chlorpromazine; positive control group) in a non-occlusive manner. After two hours, long wave-length UV light of about 10 J/cm^2 was irradiated to the test substance-applied sites. 24 hrs, 48 hrs and 72 hrs after UV irradiation, signs of photosensitization were investigated.

[6] = Toxicity test upon single oral administration; type: in vivo; settings: both sexes, mouse, in vivo, 2000 mg/kg; single oral administration, male and female mice; read-out: Lethal dose
Method: (§1) The compound II-4 was evaluated for safety upon single oral administration. The compound II-4 was orally administered to five male and five female mice (SamtakoBioKorea Co. Ltd.) in a single dose of 2,000 mg/10 ml/kg. As a control, five male and five female mice were orally administered once with 0.1 M PBS of 10 ml/kg. During 14 days after administration, death, general pathogenic symptoms and change in body weight were not observed.

[7] = system: mice; assay: Toxicity test upon single oral administration; type: in vivo; settings: single oral dose of 2,000 mg/10 ml/kg, 14 days, male and female mice
Method: as §1

[8] = system: rabbits; assay: Skin irritation test (patch test); type: in vivo; settings: 0.5 ml of 1% in 0.01M PBS, 24 hrs patch, read 24 hrs and 72 hrs
Method: 0.5 ml of 1% compound II-4 in 0.01M PBS was applied to each hairless area (2.5 cm×2.5 cm) of the back of rabbits for 24 hrs once. Each of the treated sites was covered with a single sheet of gauge (10 cm×10 cm) to prevent loss of the test compound by contact and then an impermeable and unreactive solid film to prevent evaporation of the test compound. Then, the treated site was bound with an elastic bandage while not disturbing behavior of the rabbits, and the bandage was then held in place by a paper tape. 24 hrs and 72 hrs after application of the test compound, skin irritation was investigated.

SMILES: C[C@@H](O)[C@H](NC(=O)[C@H](CCCCN)NC(=O)CCC(=O)OC[C@H](O)[C@H]1OC(=O)C(O)=C1O)C(=O)N[C@H](C(=O)N[C@@H](CCCCN)C(=O)N[C@@H](CO)C(=O)O)[C@@H](C)O [II-4, 6-(succinyl-lysyl-threonyl-threonyl-lysyl-serine(SEQ ID NO:1))ascorbic acid] (X1-KTTKS-OH)
- Evaluation [1]: Practically non-irritating
- Mean score [1]: 0
- Phototoxicity (conclusion) [1]: rarely have phototoxicity
- Total score/Site No [1]: 0 + 0/10
- Total score/Site No. [1]: 0 + 0/10
- Cytotoxicity [2]: did not showed cytotoxicity
- Sensitization class [3]: I
- Sensitization rate (%) [3]: 0%
- Sensitization score (total hrs) [3]: 0
- Skin reaction in induced regions [3]: no skin reaction was observed
- sensitization class [3]: I
- skin irritation rate [3]: 0%
- Index of Acute Ocular Irritation (I.A.O.I) [4]: zero
- Conjunctiva redness and chemosis ([4]; day 1 to day 7): no sign of conjunctiva redness and chemosis was observed
- Mean score [5]: (0 + 0)/5
- Photosensitization index [5]: 0
- Photosensitizer (conclusion) [5]: not a photosensitizer
- Stimulation index [5]: 0
- LD50 at 336 h [6]: > 2000 mg/kg
- Death, general pathogenic symptoms and change in body weight [7]: not observed
- Skin irritation [8]: very safe upon application to the skin
